This note sets out measurements from the Immune Epitope Database (IEDB).

What is called Kd is the concentration at which binding is half-saturated. A word on the IC50: it is the concentration at which inhibition is half-maximal. A higher IC50 goes with a need for much substance.

One assay concerns the target HLA-A*02:06. Briefly: IEDB peptide-MHC binding, purified MHC/competitive/radioactivity; filed as Kd, often an IC50 or EC50 that approximates it; ≥ and ≤ were set here for values at or beyond the usual limits of such assays.
The next assay addresses HLA-A*68:02. The assay is described as above.
The target in a further assay is HLA-A*02:03. Described as above.
A further assay deals with HLA-A*02:02. Described as above.
The target in a further assay is HLA-A*02:01. The assay is described as above.
For a further assay, the target named is HLA-B*15:03. Described as above.
The target of another assay is HLA-B*15:01. Described as above.
In a further assay the target is HLA-A*24:02. Briefly: IEDB peptide-MHC binding, purified MHC/competitive/fluorescence; ≥ and ≤ were set here for values at or beyond the usual limits of such assays. The note with it: source organism: Zaire ebolavirus.
The next assay deals with HLA-A*11:01. The assay is described as above.
The target of the next assay is HLA-A*30:01. Briefly: IEDB peptide-MHC binding, purified MHC/competitive/radioactivity; filed as Kd, often an IC50 or EC50 that approximates it; ≥ and ≤ were set here for values at or beyond the usual limits of such assays.
A further assay has as its target HLA-A*26:01. The description is as above.
A further assay has as its target HLA-B*08:01. The assay is described as above. The conditions noted are these: source organism: Vaccinia virus WR.
The target in the next assay is HLA-A*32:01. The assay is described as above.
Another assay concerns the target HLA-B*51:01. The description is as above.
For the next assay, the target named is HLA-B*53:01. The assay is described as above. The conditions noted are these: source organism: Dengue virus 2 Peru/IQT2913/1996.
The target of the next assay is HLA-B*07:02. The description is as above.
The target in another assay is HLA-A*24:03. Description: IEDB peptide-MHC binding, purified MHC/direct/fluorescence; filed as Kd, often an IC50 or EC50 that approximates it; ≥ and ≤ were set here for values at or beyond the usual limits of such assays. The conditions noted are these: source organism: Salmonella enterica.
The next assay deals with HLA-B*35:01. Description: IEDB peptide-MHC binding, purified MHC/competitive/radioactivity; filed as Kd, often an IC50 or EC50 that approximates it; ≥ and ≤ were set here for values at or beyond the usual limits of such assays.
Where [1] appears, read: source organism: Lymphocytic choriomeningitis virus (strain Armstrong) (clone 53b).
The mark [2] stands for this setting: source organism: Human immunodeficiency virus type 1 (CLONE 12).
Where [3] appears, read: source organism: Vaccinia virus WR.
The mark [4] stands for this setting: source organism: Dengue virus 1 Brazil/97-11/1997.
Where [5] appears, read: source organism: Dengue virus 2 Jamaica/1409/1983.
[6] abbreviates: source organism: Vaccinia virus Copenhagen.
The mark [7] stands for this setting: source organism: Dengue virus 4 Philippines/H241/1956.
[8] abbreviates: source organism: Dengue virus 2 Peru/IQT2913/1996.
The mark [9] stands for this setting: source organism: Dengue virus 3 China/80-2/1980.
[10] abbreviates: source organism: Trypanosoma cruzi.
[11] abbreviates: source organism: Dengue virus 2 16681-PDK53.
[12] abbreviates: source organism: Lassa virus GA391.

Some results are limits rather than exact numbers.

ALPHIIDEV: the Kd with HLA-A*02:06 (setting [1]) was 66 nM; in the assay with HLA-A*68:02 (setting [1]), 179 nM; with HLA-A*02:03 (setting [1]), 0.34 nM; with HLA-A*02:02 (setting [1]) it was 13 nM.

With ELDSNLYRI, the equilibrium dissociation constant (Kd) with HLA-A*68:02 (source organism: Homo sapiens) is 916 nM.

On to PLTFGWCYKL, for which the Kd in the assay with HLA-A*02:06 (setting [2]) is 13200 nM; in the assay with HLA-A*02:01 (setting [2]), 6850 nM; with HLA-A*68:02 (setting [2]), no less than 20100 nM; with HLA-A*02:03 (setting [2]), 19300 nM; in the assay with HLA-A*02:02 (setting [2]), no less than 29400 nM.

On to YAFSKYMSF, for which the values for the equilibrium dissociation constant (Kd) with HLA-B*15:03 (setting [3]) and in the assay with HLA-B*15:01 (setting [3]) were 1.77 nM and 8.99 nM, respectively.

For the sequence EYPPWLTEK, the IC50 with HLA-A*24:02 is 9580 nM; with HLA-A*11:01 (source organism: Zaire ebolavirus) it was no less than 123000 nM.

With YKTLCDMIK, in the assay with HLA-A*11:01 (source organism: Vaccinia virus), the 50% inhibitory concentration (IC50) was no less than 230000 nM.

With KMRPMFAVG, the Kd with HLA-A*30:01 (setting [4]) was 14.7 nM; with HLA-B*15:01 (setting [4]), 34.6 nM.

Turning to TTIAVSMANI, the Kd with HLA-A*68:02 (setting [5]) was found to be 3.87 nM; with HLA-A*26:01 (setting [5]), 3510 nM.

Take RKISSKNSM: the Kd with HLA-B*15:03 (setting [3]) was 0.114 nM.

Consider ISTYPGNTF, for which the Kd with HLA-B*15:03 (setting [3]) was determined as 0.479 nM.

Consider RLHSNTILK, for which the Kd with HLA-A*30:01 (setting [3]) was 48.5 nM; in the assay with HLA-B*15:03 (setting [3]) it was 8540 nM; in the assay with HLA-B*08:01, no less than 38600 nM; in the assay with HLA-B*15:01 (setting [3]), 2220 nM; in the assay with HLA-A*32:01 (setting [3]) it was 6350 nM.

For the sequence LMRSICVSI, the figures for the Kd in the assay with HLA-B*15:01 (setting [6]) and in the assay with HLA-A*32:01 (setting [6]) were 63.4 nM and 380 nM, respectively.

Take IVYSLVTTI: the dissociation constant Kd in the assay with HLA-A*30:01 (setting [3]) worked out at 16 nM; in the assay with HLA-B*15:03 (setting [3]), 1860 nM; with HLA-B*08:01 it was 13600 nM; with HLA-B*15:01 (setting [3]), 542 nM; with HLA-A*32:01 (setting [3]) it was 3.6 nM.

Regarding ETPNLAERV, the equilibrium dissociation constant (Kd) with HLA-A*68:02 (source organism: Dengue virus 1 Singapore/S275/1990) was 24.8 nM.

Turning to RIKGMSYTM, the Kd was 32.2 nM in the assay with HLA-B*15:01 (setting [7]) and 37.4 nM with HLA-A*32:01 (setting [7]).

Regarding IPTVMAFHL, the Kd in the assay with HLA-B*51:01 (setting [8]) turned out to be 5510 nM; with HLA-B*53:01, 48.9 nM; with HLA-B*07:02 (setting [8]), 596 nM.

HHQINYHGF returned a Kd with HLA-A*24:03 of 965 nM.

In the case of RPGYHTQTAG, the Kd with HLA-B*07:02 (setting [5]) amounted to 2.1 nM.

Take LKSNADWFF: the dissociation constant (Kd) in the assay with HLA-B*15:03 (setting [6]) was determined as 10.2 nM.

For the sequence WLSLLVPFV, the Kd in the assay with HLA-B*07:02 (source organism: Hepatitis B virus) was no less than 35000 nM.

Regarding ANGSLFTEQ, the IC50 with HLA-A*11:01 (setting [3]) was no less than 104000 nM.

For RPINEKEENM, the values for the Kd with HLA-B*35:01 (setting [9]) and with HLA-B*07:02 (setting [9]) were 1830 nM and 222 nM, respectively.

On to SLSHDFTLV, for which the Kd in the assay with HLA-A*02:06 (setting [10]) was 7.74 nM; with HLA-A*02:01 (setting [10]), 12.6 nM; with HLA-A*68:02 (setting [10]), 600 nM; in the assay with HLA-A*02:03 (setting [10]), 1.65 nM; in the assay with HLA-A*02:02 (setting [10]), 0.305 nM.

Regarding TTANWLWAL, the Kd with HLA-A*02:06 (setting [7]) amounted to 5.93 nM; in the assay with HLA-A*68:02 (setting [7]) it was 6.36 nM; with HLA-A*26:01 (setting [7]), 3080 nM.

Regarding MAVGLVSILA, in the assay with HLA-A*68:02 (source organism: Dengue virus 3 Martinique/1243/1999), the Kd was 3.23 nM.

Take VRKNFTSSF: the dissociation constant Kd in the assay with HLA-B*15:03 (setting [3]) amounted to 192 nM.

For the sequence TPPGSRDPF, the dissociation constant (Kd) in the assay with HLA-B*35:01 (setting [5]) is 160 nM; with HLA-B*07:02 (setting [5]) it was 9880 nM.

Turning to IQYDRRSFF, the dissociation constant Kd with HLA-B*15:03 (setting [6]) turned out to be 0.154 nM.

Turning to QPENLEYTIV, the results for the Kd with HLA-B*51:01 (setting [11]) and with HLA-B*07:02 (setting [11]) were no less than 69600 nM and 4620 nM, respectively.

In the case of ILAADLEKL, the Kd in the assay with HLA-A*02:06 (setting [12]) was determined as 195 nM; with HLA-A*68:02 (setting [12]) it was 4290 nM; with HLA-A*02:03 (setting [12]) it was 20 nM; with HLA-A*02:02 (setting [12]) it was 32.3 nM.
